IntAct's records for PubMed 26455797

B1: CCAAT/enhancer-binding protein alpha (Homo sapiens), P49715-1 (parent)
chain: MESADFYEAEPRPPMSSHLQSPPHAPSSAAFGFPRGAGPAQPPAPPAAPEPLGGICEHETSIDISAYIDPAAFNDEFLADLFQHSRQQEKAKAAVGPTGGGGGGDFDYPGAPAGPGGAVMPGGAHGPPPGYGCAAAGYLDGRLEPLYERVGAPALRPLVIKQEPREEDEAKQLALAGLFPYQPPPPPPPSHPHPHPPPAHLAAPHLQFQIAHCGQTTMHLQPGHPTPPPTPVPSPHPAPALGAAGLPGPGSALKGLGAAHPDLRASGGSGAGKAKKSVDKNSNEYRVRRERNNIAVRKSRDKAKQRNVETQQKVLELTSDNDRLRKRVEQLSRELDTLRGIFRQLPESSLVKAMGNCA
partner: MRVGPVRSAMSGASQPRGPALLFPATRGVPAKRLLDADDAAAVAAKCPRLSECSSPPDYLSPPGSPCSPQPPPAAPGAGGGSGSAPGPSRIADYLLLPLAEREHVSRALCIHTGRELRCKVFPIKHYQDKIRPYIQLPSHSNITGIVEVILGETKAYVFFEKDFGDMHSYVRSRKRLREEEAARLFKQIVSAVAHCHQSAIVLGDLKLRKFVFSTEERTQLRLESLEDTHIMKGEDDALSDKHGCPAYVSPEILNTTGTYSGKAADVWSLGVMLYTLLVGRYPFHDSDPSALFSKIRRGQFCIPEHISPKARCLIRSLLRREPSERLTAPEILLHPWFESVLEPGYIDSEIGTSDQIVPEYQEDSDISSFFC

Variants of: B1
Conditions: with TRIB1, Q96RU8-1

| Variant | effect of a mutation on the interaction |
| --- | --- |
| E59A | decreasing interaction strength |
| I55A | decreasing interaction strength |
| S61A | decreasing interaction strength |

The remaining lines, values ahead:

| effect of a mutation on the interaction | Variant |
| --- | --- |
| decreasing interaction strength | I62D |
| decreasing interaction strength | Y67A |
| decreasing interaction strength | I68D |
| decreasing interaction strength | I64D |
